Results published in patent US5705143A, “Biological targeting agents” (Amersham International PLC, priority 1994, dated 1998).
Entries after “also recorded” stand apart in the source; their conditions may differ. Bridge positions count the residues as written; N and C are the ends. Square brackets hold non-standard residues; d marks the D form. Peptide text beside a SMILES is read from it. * marks the point of attachment. Phe(ol) = N[C@H](CO)Cc1ccccc1; NHCH(CH2OH)2 = OCC(CO)N*

Tests used:
growth hormone = settings: relative to somatostatin = 100%; cited from earlier work
[1] = in words; cited from earlier work
receptor = settings: Babich et al; in words; cited from earlier work
somatostatin receptors = experiment: Biodistribution in rats: uptake/retention in adrenals and pancreas (somatostatin receptor-enriched tissues); assay type: in vivo, Male Wistar rats; settings: rat, i.v.; for Adrenal % Injected dose / Adrenal Relative concentration / Pancreas % Injected dose / Pancreas Relative concentration: carrier free (CF)
Procedure: In the present invention the peptides studied were radiolabelled with either ^123 I or ^99m Tc and their biodistributions studied in rats with organs of particular interest being the adrenals and pancreas. This is because somatostatin receptors have been shown in vitro to be enriched in a number of tissues including adrenals^(11,12), pancreas^(13,14), pituitary^(11,14) and brain^(15). […] Brain somatostatin receptors are not visualised when the compound is administered in vivo. In this study measurement of pituitary uptake was not sufficiently sensitive to distinguish specific and non-specific effects.
Carrier Effect on ^123 I--Compounds 1 and 6
For ^123 I--Compounds 1 and 6 the effect of carrier peptide on the biodistribution of the carrier-free ^123 I peptide was assessed by preparing 2 ml of a phosphate buffered solution of HPLC-purified carrier-free iodinated peptide as described above but then subdispensing 1 ml of this solution into a second vial containing carrier peptide.
A similar `carrier-effect` is anticipated for technetium labelled peptides, therefore the only valid comparison of biodistribution data for ^99m Tc and ^123 I labelled peptides is when both are carrier-added (CA).
(§1) Male Wistar rats were injected intravenously, under light anaesthesia with the test agent. At 2 minutes, 1 hour and 4 hours post-injection animals were sacrificed by cervical dislocation and various organs and tissue samples were removed for assay of radioactive content. The percentage injected dose in all dissected organs was calculated. In addition the % dose/gram tissue and the relative concentration of activity was calculated for selected organs. Relative concentration is the proportion of total activity in the organ divided by the proportion of bodyweight comprised by the organ. Thus, if a compound is uniformly disseminated throughout the body according to tissue weight then a given organ will have a relative concentration=1. A relative concentration>1 implies sequestration and/or retention of the compound and is a useful index where the absolute uptake (% injected dose per organ) is low.
(§2) Organs in which the test agent were looked for included the adrenals and the pancreas, where somatostatin receptors are known to be enriched (vide supra).

[2] = Biodistribution in rats: blood, kidney/bladder/urine, liver, gut, thyroid; assay type: in vivo, Male Wistar rats; settings: rat, i.v., carrier free (CF)
Procedure: as §1, §2

[3] = Metabolic stability in rat kidney homogenate; assay type: in vitro ADME; settings: 37° C., approx. 1 and 3 hours, HPLC; FIG. 1; in words
Procedure: Rat brain and kidney homogenates were produced by homogenising brain (1.71 g) and kidneys (2.41 g) in 10 vols phosphate buffered saline and centrifuging at 2000 rpm for 5 minutes.
Compound 4 (50 μg) was radiolabelled by stannous reduction of ^99m TcO4^- (0.2 GBq) at pH 9.0.
^99m Tc-Compound 4 solution (200 μl) was mixed with phosphate buffered saline (800 μl, control) rat kidney homogenate (800 μl) and rat brain homogenate (800 μl) and incubated at 37° C. HPLC analyses using the system described in Example 13 for ^99m Tc labelled peptides were performed on each sample at approx. 1 and 3 hours post-mixing.

carboxypeptidases = settings: in words; cited from earlier work

Molecule: C[C@H](O)[C@H](CO)NC(=O)[C@@H]1CSSC[C@H](NC(=O)[C@H](N)Cc2ccccc2)C(=O)N[C@@H](Cc2ccccc2)C(=O)N[C@H](Cc2c[nH]c3ccccc23)C(=O)N[C@@H](CCCCN)C(=O)N[C@@H]([C@@H](C)O)C(=O)N1 [D-Thr(ol)]
- Relative potency (%) of growth hormone inhibition in vivo (growth hormone): 1100%

Molecule: C[C@H](O)[C@@H](NC(=O)[C@@H]1CSSC[C@H](NC(=O)[C@H](N)Cc2ccccc2)C(=O)N[C@@H](Cc2ccccc2)C(=O)N[C@H](Cc2c[nH]c3ccccc23)C(=O)N[C@@H](CCCCN)C(=O)N[C@@H]([C@@H](C)O)C(=O)N1)C(N)=O [D-Thr(NH2)]
- Relative potency (%) of growth hormone inhibition in vivo (growth hormone): 1160%

Molecule: C[C@@H](O)[C@@H]1NC(=O)[C@H](CCCCN)NC(=O)[C@@H](Cc2c[nH]c3ccccc23)NC(=O)[C@H](Cc2ccccc2)NC(=O)[C@@H](NC(=O)[C@H](N)Cc2ccccc2)CSSC[C@@H](C(=O)N[C@H](CO)[C@@H](C)O)NC1=O [Thr(ol)]
- Relative potency (%) of growth hormone inhibition in vivo (growth hormone): 7000%

Molecule: C[C@@H](O)[C@@H]1NC(=O)[C@H](CCCCN)NC(=O)[C@@H](Cc2c[nH]c3ccccc23)NC(=O)[C@H](Cc2ccccc2)NC(=O)[C@@H](NC(=O)[C@H](N)Cc2ccccc2)CSSC[C@@H](C(=O)N[C@H](CO)[C@@H](C)O)NC1=O [Octreotide]
- biological half-life [1]: much longer biological half-life than natural somatostatin

Molecule: CSCC[C@H](NC=O)C(=O)N[C@@H](CC(C)C)C(=O)N[C@@H](Cc1ccccc1)C(=O)NCCCCCCNC(=O)c1ccc(NN)nc1 [HP3, fMLFNH(CH2)6 NH--HYNIC]
- in vitro receptor binding affinity (receptor): marginally better in vitro receptor binding affinity than HP2

Molecule: C[C@@H](O)[C@@H]1NC(=O)[C@H](CCCCN)NC(=O)[C@@H](Cc2c[nH]c3ccccc23)NC(=O)[C@H](Cc2ccccc2)NC(=O)[C@@H](NC(=O)[C@H](N)Cc2ccccc2)CSSC[C@@H](C(=O)NC(CO)CO)NC1=O [Ser(ol)] (H-[dF]CF[dW]KTC-{NHCH(CH2OH)2}; disulfide 2-7)
- Relative potency (%) of growth hormone inhibition in vivo (growth hormone): 2800%

Molecule: I-SS14: 123I labelled Somatostatin-14
- somatostatin (SS) receptor binding in adrenals and pancreas (somatostatin receptors; 2 min, 1 and 4 hours p.i., in words, listed as 123 I-SS14): can be detected in the adrenal glands and pancreatic tissue; also recorded: marked SS-like binding of ^123 I-SS14 at 2 minutes post-injection (p.i.), but this activity was not retained at 1 and 4 hours p.i
- Adrenal % Injected dose (somatostatin receptors; 2 min pi): 0.19 % Injected dose
- Adrenal Relative concentration (somatostatin receptors; 2 min pi): 7.6
- Pancreas % Injected dose (somatostatin receptors; 2 min pi): 2.3 % Injected dose
- Pancreas Relative concentration (somatostatin receptors; 2 min pi): 4.5
- Adrenal % Injected dose (somatostatin receptors; 1 hr pi): 0.01 % Injected dose
- Adrenal Relative concentration (somatostatin receptors; 1 hr pi): 0.4
- Pancreas % Injected dose (somatostatin receptors; 1 hr pi): 0.3 % Injected dose
- Pancreas Relative concentration (somatostatin receptors; 1 hr pi): 0.6
- Adrenal % Injected dose (somatostatin receptors; 4 hr pi): 0.01 % Injected dose
- Adrenal Relative concentration (somatostatin receptors; 4 hr pi): 0.3
- Pancreas % Injected dose (somatostatin receptors; 4 hr pi): 0.2 % Injected dose
- Pancreas Relative concentration (somatostatin receptors; 4 hr pi): 0.4
- Blood % Injected dose ([2]; 2 min pi): 16.2 % Injected dose
- Gut % Injected dose ([2]; 2 min pi): 9.9 % Injected dose
- Kidney, Bladder & Urine % Injected dose ([2]; 2 min pi): 3.4 % Injected dose
- Liver % Injected dose ([2]; 2 min pi): 7.2 % Injected dose
- Thyroid % Injected dose ([2]; 2 min pi): 0.11 % Injected dose
- Blood % Injected dose ([2]; 1 hr pi): 5.5 % Injected dose
- Gut % Injected dose ([2]; 1 hr pi): 19.9 % Injected dose
- Kidney, Bladder & Urine % Injected dose ([2]; 1 hr pi): 9.9 % Injected dose
- Liver % Injected dose ([2]; 1 hr pi): 2.2 % Injected dose
- Thyroid % Injected dose ([2]; 1 hr pi): 1.10 % Injected dose
- Blood % Injected dose ([2]; 4 hr pi): 6.1 % Injected dose
- Gut % Injected dose ([2]; 4 hr pi): 12.1 % Injected dose
- Kidney, Bladder & Urine % Injected dose ([2]; 4 hr pi): 17.9 % Injected dose
- Liver % Injected dose ([2]; 4 hr pi): 2.4 % Injected dose
- Thyroid % Injected dose ([2]; 4 hr pi): 2.00 % Injected dose

Molecule: C[C@@H](O)[C@@H]1NC(=O)[C@H](CCCCN)NC(=O)[C@@H](Cc2c[nH]c3ccccc23)NC(=O)[C@H](Cc2ccccc2)NC(=O)[C@@H](NC(=O)[C@H](N)Cc2ccccc2)CSSC[C@@H](C(=O)N[C@H](CO)Cc2ccccc2)NC1=O [Phe(ol)] (H-[dF]CF[dW]KTC[Phe(ol)]; disulfide 2-7)
- Relative potency (%) of growth hormone inhibition in vivo (growth hormone): 650%

Molecule: somatostatin
- metabolic stability in rat kidney homogenate [3]: rapidly metabolised
- susceptibility to metabolism by carboxypeptidases (carboxypeptidases): particularly susceptible to metabolism by carboxypeptidases
